Test results reported in patent publication US8217140B2, “Peptides capable of binding to serum proteins and compounds, constructs and polypeptides comprising the same” (Ablynx N.V., priority 2008, dated 2012).
Residue numbers refer to the chain shown, from its start. Where two headings read alike, the source gives them in different places.

B1: 2D3-56H5: SEQ ID NO: 139, fusion of Nanobody 2D3 and peptide 56H5 with Myc-His tag (protein)
chain: EVQLVESGGSLVQPGGSLRLSCAASGFTFDDYAMSWVRQVPGKGLEWVSSINWSGTHTDYADSVKGRFTISRNNANNTLYLQMNSLKSEDTAVYYCAKNWRDAGTTWFEKSGSAGQGTQVTVSSGGGGSGGGSAAAFYDDYDVFGGGTPAGGAAAEQKLISEEDLNGAAHHHHHH
modifications: Myc-His tag; fusion protein
B2: 2D3-9GS-EXP56E4: SEQ ID NO: 142, fusion of peptide 56E4 and Nanobody 2D3 via 9GS linker (protein)
chain: EVQLVESGGSLVQPGGSLRLSCAASGFTFDDYAMSWVRQVPGKGLEWVSSINWSGTHTDYADSVKGRFTISRNNANNTLYLQMNSLKSEDTAVYYCAKNWRDAGTTWFEKSGSAGQGTQVTVSSGGGGSGGGSRYWDYDVFGGGTPVGG
B3: 2D3-9GS-59C2: SEQ ID NO: 164, 59C2 without the two N-terminal alanines fused via 9GS linker to C-terminus of 2D3 (protein)
chain: B2 chain with Y135D, Y138F

Assays:
human serum albumin [1] = target: T1, human serum albumin (Homo sapiens, UniProt P02768); test: Phage ELISA on HSA-coated plates; type: binding; conditions: phage clones; near-infrared fluorescence intensity vs phage dilution, FIG. 2
Experimental: 5-fold serial dilutions of phage clones (starting from ˜5×10^11 phage) were added to 96-well Nunc Maxisorp plates coated with human serum albumin (2 μg/ml in PBS, overnight at 4° C.; plates were blocked with Superblock T20 (Pierce) for 1 h at room temperature). The microtiter plate was washed with wash buffer (PBS, 0.05% Tween 20) and bound phages were detected with anti-M13 and goat-anti mouse IRDye conjugate (610-130-121, Rockland). The amount of IRDye bound was measured on Odyssey (LI-COR Biosciences). The dilution of phage was plotted against measured near-infrared fluorescence intensity (FIG. 2).

human serum albumin [2] = target: T1, human serum albumin; test: Co-crystal structure and in silico modelling of peptide with human serum albumin; conditions: crystal structure and modeling data
Experimental: The crystal structure was determined as follows: the purified proteins were used in crystallization trials employing both, a standard screen of approximately 1200 different conditions, as well as crystallization conditions identified using literature data. Conditions initially obtained have been optimized using standard strategies, systematically varying parameters critically influencing crystallization, such as temperature, protein concentration, drop ratio, etc. These conditions were also refined by systematically varying pH or precipitant concentrations. Crystals were obtained via the method of co-crystallization.
Crystals have been flash-frozen and measured at a temperature of 100K. The X-ray diffraction have been collected at the SWISS LIGHT SOURCE (SLS, Villigen, Switzerland) using cryogenic conditions. Data were processed using the programs XDS and XSCALE. The phase information necessary to determine and analyze the structure was obtained by molecular replacement. Subsequent model building and refinement was performed with the software packages CCP4 and COOT. The peptide parameterization was carried out with the program […].
Modeling of the interaction was performed using ICM-Pro (Molsoft) and Discovery Studio (Accelrys) with a force-field that is based on the parameters as described in Momany et al. (Momany et al. J. Phys. Chem. 1975, 79, 2361-2381)

human serum albumin [3] = target: T1, human serum albumin; test: Surface plasmon resonance (BIAcore 3000) of 2D3 fusion proteins, Example 6; type: binding
Experimental: (§1) The binding of the resulting 2D3-17D12 and 2D3-56H5 fusion proteins to human serum albumin was determined using surface plasmon resonance analysis. For this purpose, the fusion proteins were expressed in E. coli TG1 cells. The fusion proteins were purified by IMAC/SEC and binding to HSA was assessed in BIAcore™ 3000, by injecting 1 μM and 5 μM of the 2D3-17D12 and 2D3-56H5 fusion proteins on a CM5 chip coated with ˜7000 RU human serum albumin (Sigma, 99% pure) and 2460 RU an irrelevant protein antigen (reference). Coating of the chip (CM5) was performed by amine coupling using NHS/EDC for activation and ethanolamine for deactivation (Biacore amine coupling kit). HBS-EP was used as flow buffer at a rate of […]. 20 μl of sample was injected for 120 s. The 2D3 Nanobody was injected as control.

[4] = tested on: irrelevant protein antigen; test: Surface plasmon resonance control on chip coated with irrelevant protein, Example 6; type: binding; conditions: 5 μM injected; CM5 chip coated with irrelevant protein (2400RU)
Experimental: as §1

[5] = Pharmacokinetic profile in male cynomolgus monkeys: monovalent Nanobody 2D3 constructs; type: in vivo, Cynomolgus monkey; conditions: for exposure higher and total body clearance (CL) lower than after 2D3: on average, relative to control article 2D3; for AUCinf / C0: serum
Experimental: The pharmacokinetic profile of this 2D3-9GS-EXP56E4 Nanobody construct (“construct” or “test item” hereafter) was analysed in male cynomolgus monkeys of approximately 3 to 4 years old and was compared to the 2D3 control (“control” or “negative control” hereafter). The construct and the control were each injected in three monkeys. Both the construct and the control were administered at a dose of 2 mg/kg via intravenous infusion. Blood samples were taken at predose, 5 min, 20 min, 1 h, 2 h, 4 h, 8 h, and 16 h after administration and at test days 2, 3, 5, 7, 9, 12, 15, 18, 21, 24, 27, 30, 33, 36, 39, 42, 45, 48, 51, 54, and 57 after the start of the infusion. In order to obtain at least 0.25 mL serum per animal per sampling time, a sufficient volume of whole blood was withdrawn per sampling time and the serum was isolated after 1 h of incubation at 37° C. The serum samples were stored at −80° C.
Serum samples were tested for serum levels of construct and the control, respectively, using the following ELISA assay.
96-well microtiter plates (Maxisorp, Nunc, Wiesbaden, Germany) were coated for 1 hour at 37° C. with Recombinant Human ErbB2/Fc Chimera, C F (R&D Systems, Minneapolis) in PBS at 3 μg/mL for the negative control and 4.5 μg/mL for the test item. Wells were aspirated and blocked for 30 minutes at room temperature (RT) with SuperBlock®T20 PBS (Pierce, Rockford, Ill.). After this blocking step, wells were washed with PBS-0.05% Tween20.
Preparations for the standards, QC samples and dilutions of the test samples were performed in a non-coated (polypropylene) plate.
Standard curve and QC-samples: Solutions at the required concentrations were prepared in PBS 0.1% casein and spiked into 100% monkey serum. To prepare standards and QC samples, a 1/10 dilution of the pure monkey serum dilutions was made in PBS-0.1% casein.
Test samples: Dilution factors for the test samples were estimated, and varied from 1/10 to 1/500. Samples were diluted 1/10 in PBS 0.1% casein in a first step, and if needed, further dilution was done in PBS 0.1% casein containing 10% monkey serum. These sample dilutions were further serially diluted 1/5 in PBS 0.1% casein with 10% monkey serum over 2 wells.
Standards, QC samples and the 1/5 dilutions of the test samples were transferred onto the coated plate and incubated for 1 hour at RT. Afterwards the plates were washed and rabbit polyclonal anti-VHH K1, purified against protein A and Her2/Fc depleted, was added at 1 μg/mL in PBS 0.1% casein, and incubated for 1 hour at RT. After washing a 1/2000 dilution in PBS 0.1% casein of horse radish peroxidase labelled goat anti-rabbit (Dakocytomation, Denmark) was added to the plate and incubated for 30 minutes at RT. This enzyme catalyzes a chemical reaction with the substrate sTMB (3,3′,5,5′-tetramethylbenzidine, SDT reagents, Brussels, Belgium), which results in a colorimetric change. After stopping this reaction after 15 minutes using HCl (1N), the intensity of the colour was measured by a spectrophotometer, which determines the optical density of the reaction product, using a 450 nm wavelength of light.
The concentration of the construct and the control in the serum samples was determined towards a standard curve of the construct and the control, respectively. The concentration determination was performed using the sigmoidal dose-response curve with variable slope. All serum samples were tested minimally in duplicate. Average values were reported. For each sample standard deviations and precision between the different results was calculated.
For blood sampling and processing, the pharmacokinetic profile of the constructs (2D3-9GS-EXP56E4 and 2D3-9GS-EXP59C2) and the negative control 2D3 were determined in male Cynomolgus monkeys of approximately 3 to 4 years old and was compared to that of the control (2D3). The constructs and the control were administered to three monkeys at a dose of 2 mg/kg by intravenous bolus injection. […]

[6] = target: Cynomolgus monkey serum albumin (Macaca fascicularis, UniProt A2V9Z4); test: Surface plasmon resonance (BIAcore 3000) of 2D3-9GS-56E4 and 2D3-9GS-59C2, Example 11; type: binding; conditions: for ka: untagged constructs
Experimental: (§2) The binding was determined in BIAcore™ 3000, by injecting concentration series of the fusion proteins ranging from 2 μM to 200 nM on a CM5 chip coated with ˜3000 RU HSA or CSA. Coating of the chip (CM5) was performed by amine coupling using NHS/EDC for activation and ethanolamine for deactivation (Biacore amine coupling kit). HBS-EP was used as flow buffer at a rate of 45 μl min-1. 90 μl of sample was injected for 120 s.

human serum albumin [7] = target: T1, human serum albumin; test: as above; type: binding
Experimental: as §2

[8] = i.v. bolus 2 mg/kg, male Cynomolgus monkey, mean n = 3

Chain of Cynomolgus monkey serum albumin (A2V9Z4 25-608): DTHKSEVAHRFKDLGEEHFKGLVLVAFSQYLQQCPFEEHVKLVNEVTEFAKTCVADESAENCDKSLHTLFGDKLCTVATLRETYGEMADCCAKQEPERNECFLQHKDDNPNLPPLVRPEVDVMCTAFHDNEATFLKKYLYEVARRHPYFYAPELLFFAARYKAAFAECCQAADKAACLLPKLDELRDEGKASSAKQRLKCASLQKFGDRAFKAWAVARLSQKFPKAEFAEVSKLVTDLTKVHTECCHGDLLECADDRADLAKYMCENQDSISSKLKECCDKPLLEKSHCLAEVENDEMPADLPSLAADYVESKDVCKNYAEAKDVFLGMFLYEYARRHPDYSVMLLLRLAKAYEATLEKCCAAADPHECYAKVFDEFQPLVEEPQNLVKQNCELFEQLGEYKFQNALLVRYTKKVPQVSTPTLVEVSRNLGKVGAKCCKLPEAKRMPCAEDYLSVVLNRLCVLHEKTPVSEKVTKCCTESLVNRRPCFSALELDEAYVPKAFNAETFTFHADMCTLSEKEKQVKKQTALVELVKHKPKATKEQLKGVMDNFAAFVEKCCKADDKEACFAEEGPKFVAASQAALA

| Molecule | binding to HSA compared to the amino acid sequence of SEQ ID NO: 1 (human serum albumin [1]) | Vdss [5, 8] [mL/kg] | exposure higher and total body clearance (CL) lower than after 2D3 [5] [fold] | mean Vdss lower compared to 2D3 ([5]; relative to 2D3) [fold] | AUCinf [5, 8] [µg·h/mL] | C0 [5, 8] [µg/mL] | koff (dissociation rate constant) [6] [s⁻¹] | ka [6] | other results |
| --- | --- | --- | --- | --- | --- | --- | --- | --- | --- |
| AAYYYDYDVFGGGTPGGE [56 E2] | stronger binding |  |  |  |  |  |  |  |  |
| AAARYWDYDVFGGGTPVGGAAA [peptide of SEQ ID NO: 143, based on EXP56E4 with an additional N-terminal alanine and three C-terminal alanine residues] |  |  |  |  |  |  |  |  | binding site on human serum albumin (human serum albumin [2]): binds in a deep subpocket of domain I of human serum albumin |
| AAPYRDYDVFGGGTPRGE [56 F2] | stronger binding |  |  |  |  |  |  |  |  |
| B1 |  |  |  |  |  |  |  |  | binding to HSA (surface plasmon resonance, FIG. 5) (human serum albumin [3]; 1 μM and 5 μM injected, comparison with 2D3-17D12 fusion protein): improved binding; ka (human serum albumin [3]; CM5 chip ~7000 RU HSA): 7570 M⁻¹ s⁻¹; kd (human serum albumin [3]; CM5 chip ~7000 RU HSA): 0.0093 s⁻¹; specific binding to irrelevant protein [4]: no specific binding was detected |
| B2 |  | 50.3 | 23 | 2.3 | 458 | 66.8 | 0.00847 | 1.71E+04 1/ms | Terminal Half-life ([5]; cynomolgus monkeys, 2 mg/kg intravenous infusion, Table IV): 8.54 ± 0.79 h; t½ (terminal half-life) ([5]; i.v. bolus 2 mg/kg, male Cynomolgus monkey, mean n = 3, 2 mg/kg): 8.54 h; terminal half-life (t½) increase relative to 2D3 ([5]; relative to 2D3): 4.2 fold; Kd (human serum albumin [7]; dissociation rate): 0.00497 s⁻¹; Kd (human serum albumin [7]; read-out: KD): 342 nM; ka (human serum albumin [7]; untagged constructs): 1.04E+04 1/ms |
| B3 |  | 45.5 | 77 | 2.6 | 1540 | 62.5 | 0.00247 | 8.98E+03 1/ms |  |
